# Source: patent publication US7262024
# Assays:
# [1] = target: Mouse serum rVP147-QuilA (mouse 1); assay: flow cytometry, inhibition of surface labeling by serum rVP147-QuilA (mouse 1)
# [2] = target: Mouse serum rVP147-QuilA (mouse 2); assay: flow cytometry, inhibition of surface labeling by serum rVP147-QuilA (mouse 2)
# [3] = target: Mouse serum rVP147-AlOH (mouse 2); assay: flow cytometry, inhibition of surface labeling by serum rVP147-AlOH (mouse 2)
# [4] = target: Mouse serum rVP56-QuilA (mouse 1); assay: flow cytometry, inhibition of surface labeling by serum rVP56-QuilA (mouse 1)
# [5] = target: Mouse serum rVP56-AlOH (mouse 1); assay: flow cytometry, inhibition of surface labeling by serum rVP56-AlOH (mouse 1)
# [6] = target: Mouse serum rVP147-AlOH (mouse 1); assay: flow cytometry, inhibition of surface labeling by serum rVP147-AlOH (mouse 1)
# [7] = target: Mouse serum rVP56-AlOH (mouse 2); assay: flow cytometry, inhibition of surface labeling by serum rVP56-AlOH (mouse 2)
# [8] = target: Mouse serum rVP56-QuilA (mouse 2); assay: flow cytometry, inhibition of surface labeling by serum rVP56-QuilA (mouse 2)
Binder,% inhibition [1] [%],% inhibition [2] [%],% inhibition [3] [%],% inhibition [4] [%],% inhibition [5] [%],% inhibition [6] [%],% inhibition [7] [%],% inhibition [8] [%]
New 139 (protein) MQITYTDDEIQVAKLAGKYTTEDGYIFDGGWIKKDSLSEAERAAAQAYAKEKGLTPPSTDHQDSGNTEAKGAEAIYNRVKAAKKVPLDRMPYNLQYTVEVKNGSLIIPHHDHYHNIKFEWFDEGLYEAPKGYSLEDLLATVKYYVEGGNASDHVRKNKADQDSKPDEDKEHDEVSEPTHPESDEKENHAGLNPSADNLYKPSTDTEETEEEAEDTTDEAEIPGGPSIRQNAMETLTGLKSSLLLGTKDNNTISAEVDSLLALLKESQPAPIQ,41.3,40.7,49.7,0.2,0,53.8,0,
VP147 (protein) MQITYTDDEIQVAKLAGKYTTEDGYIFDGGWIKKDSLSEAERAAAQAYAKEKGLTPPSTDHQDSGNTEAKGAEAIYNRVKAAKKVPLDRMPYNLQYTVEVKNGSLIIPHHDHYHNIKFEWFDEGLYEAPKGYSLEDLLATVKYYVEGGNASDHVRKNKADQDSKPDEDKEHDEVSEPTHPESDEKENHAGLNPSADNLYKPSTDTEETEEEAEDTTDEAEIPGGPSIRQNAMETLTGLKSSLLLGTKDNNTISAEVDSLLALLKESQPAPIQGGQIGQPTLPNNSLATPSPSLPINPGTSHEKHEEDGYGFDANRIIAEDESGFVMSHGDSNHYFFKKDLTEEQIKAAQKHLEEVKTSHNGLDSLSSHEQDYPGNAKEMKDLDKKIEEKIAGIMKQYGVKRESIVVNKEKNAIIYPSGDHHHADPIDEHKPVGIGHSHSNYELFKPEEGVAKKEGNKVYTGEELTNVVNLLKNSTFNNQNFTLANGQKRVSFSFPPELEKKLGINMLVKLITPDGKVLEKVSGKVFGEGVGNIANFELDQPYLPGQTFKYTIASKDYPEVSYDGTFTVPTSLAYKMASQTIFYPFHAGDTYLRVNPQFAVPKGTDALVRVFDEFHGNAYLENNYKVGEIKLPIPKLNQGTTRTAGNKIPVTFMANAYLDNQSTYIVEVPILEKENQTDKPSILPQFKRNKAQENSKLDEKVEEPKTSEKVEKEKLSETGNSTSNSTLEEVPTVDPVQEKVAKFAESYGMKLENVLFNMDGTIELYLPSGEVIKKNMADFTGEAPQGNGENKPSENGKVSTGTVENQPTENKPADSLPEAPNEKPVKPENSTDNGMLNPEGNVGSDPMLDPALEEAPAVDPVQEKLEKFTASYGLGLDSVIFNMDGTIELRLPSGEVIKKNLSDFIA,99.7,99.6,99.8,99.5,99.6,99.7,100,99.3
VP56 (protein) MQIGQPTLPNNSLATPSPSLPINPGTSHEKHEEDGYGFDANRIIAEDESGFVMSHGDSNHYFFKKDLTEEQIKAAQKHLEEVKTSHNGLDSLSSHEQDYPGNAKEMKDLDKKIEEKIAGIMKQYGVKRESIVVNKEKNAIIYPSGDHHHADPIDEHKPVGIGHSHSNYELFKPEEGVAKKEGNKVYTGEELTNVVNLLKNSTFNNQNFTLANGQKRVSFSFPPELEKKLGINMLVKLITPDGKVLEKVSGKVFGEGVGNIANFELDQPYLPGQTFKYTIASKDYPEVSYDGTFTVPTSLAYKMASQTIFYPFHAGDTYLRVNPQFAVPKGTDALVRVFDEFHGNAYLENNYKVGEIKLPIPKLNQGTTRTAGNKIPVTFMANAYLDNQSTYIVEVPILEKENQTDKPSILPQFKRNKAQENSKLDEKVEEPKTSEKVEKEKLSETGNSTSNSTLEEVPTVDPVQEKVAKFAESYGMKLENVLFNMDGTIELYLPSGEVIKKNMADFTGEAPQGNGENKPSENGKVSTGTVENQPTENKPADSLPEAPNEKPVKPENSTDNGMLNPEGNVGSDPMLDPALEEAPAVDPVQEKLEKFTASYGLGLDSVIFNMDGTIELRLPSGEVIKKNLSDFIA,68.1,74.1,61.6,99.7,99.7,50,100,99.8
